Key:
TGFβ2 = target: T1, TGFβ2 (UniProt P61812 P61812:303-414); experiment: competition; monodentate control with 5-bp extension; competes similarly to bidentates with linkers of 30 nt or more; conditions: chain copies: 2 (inferred, homodimer)
T1 sequence: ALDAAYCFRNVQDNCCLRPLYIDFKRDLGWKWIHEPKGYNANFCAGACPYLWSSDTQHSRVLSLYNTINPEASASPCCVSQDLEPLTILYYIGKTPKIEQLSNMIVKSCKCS

PDGF-BB [1] = target: T2, PDGF-BB (UniProt P01127 P01127:82-190); experiment: 10 or 100 nM splint DNA enhances affinity of bidentate aptamer; conditions: chain copies: 2 (inferred, homodimer); linker region hybridised to 40-nt splint oligonucleotide
Description: (§1) High molecular weight aptamer compositions capable of binding to platelet derived growth factor (PDGF) were produced using the following methods. A dimeric, or bidentate PDGF aptamer having the sequence shown in FIG. 4(A) was synthesized using standard reagents (oligonucleotides supplied by Integrated DNA Technologies, Coralville, Iowa). As shown in FIG. 4(B), the enhanced affinity of the bidentate aptamer to its target (either PDGF BB or AB) was greatest at higher protein concentrations where the binding conditions were 25° C. in 1×PBS with an RNA ligand concentration of <10 pM. […] This enhancement could reflect a splint-dependent reduction in rotational degrees of freedom within the linker region, leading to an increase in the effective concentration of the bidentate ligand. The addition of splint DNA to the monovalent aptamer to PDGF-BB had no effect on binding affinity (FIG. 5).

PDGF-BB [2] = target: T2, PDGF-BB; experiment: enhanced affinity vs monomer, greatest at higher protein concentration; 1x PBS, 25 C, ligand <10 pM; conditions: chain copies: 2 (inferred, homodimer)
Description: as §1

PDGF-AB = PDGF-AB (UniProt P04085;P01127 P04085:87-211,P01127:82-190); experiment: enhanced affinity stated for PDGF BB or AB; 1x PBS, 25 C, ligand <10 pM
Description: as §1

T2 sequence (P01127 82-190, one chain of several): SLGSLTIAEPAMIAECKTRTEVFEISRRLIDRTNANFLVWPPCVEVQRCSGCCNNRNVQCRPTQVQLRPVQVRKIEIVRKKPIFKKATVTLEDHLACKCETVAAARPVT
Sequence of PDGF-AB (P01127 82-190, chain 2 of 2, other chains not shown): as the sequence (P01127 82-190, one chain of several) above

B1: ARC77 with 5-bp terminal extension (ssRNA)
RNA: GCGCCGAGGUUAUUACAGAGUCUGUAUAGCUGUACUCGGCGC
modifications: 2'-F pyrimidines (inferred)
B1: binds (TGFβ2).

B2: PDGF bidentate aptamer + splint DNA (structured_DNA)
DNA 1: TACTCAGGGCACTGCAAGCAATTGTGGTCCCAATGGGCTGAGTATGTGGTCTATGTCGTCGTTCGCTAGTAGTTCCTGGGCTGCACTCGAGGCGTAGAATTCCCCCGATGCGCGCTGTTCTTACTCAGGGCACTGCAAGCAATTGTGGTCCCAATGGGCTGAGTAT
DNA 2: AAAGGAATTCTACGCCTCGAGTGCAGCCCAGGAACTATTT
B2: binds (PDGF-BB [1]).

B3: PDGF bidentate aptamer (ssDNA)
DNA: B2 DNA 1
B3: binds (PDGF-BB [2]); binds (PDGF-AB).
